Data as given in US20170248602A1.
pKd: −log10 of the molar value.

Legend:
[1] = target: SNAP-25 peptide comprising amino acids 134-197 of SEQ ID NO:5 (human); assay: SPR (BIAcore 3000), peptide on CM5 chip, 1:1 fit
[2] = target: SNAP-25 peptide comprising amino acids 134-206 of SEQ ID NO:5 (human); assay: SPR (BIAcore 3000), peptide on CM5 chip, 1:1 fit

| Substance | pKd [1] | koff [1] [s⁻¹] | kon [1] [M⁻¹ s⁻¹] | pKd [2] | koff [2] [s⁻¹] | kon [2] [M⁻¹ s⁻¹] |
| --- | --- | --- | --- | --- | --- | --- |
| MC-6050 mouse α-SNAP-25 monoclonal antibody (Research & Diagnostic Antibodies) | 9.30 | 0.000882 | 1.78e+06 | 4.70 | 0.00607 | 306 |
| MC-6053 mouse α-SNAP-25 monoclonal antibody (Research & Diagnostic Antibodies) | 9.29 | 0.00118 | 2.32e+06 | 6.62 | 2.56e-05 | – |
